In patent publication US20150246136A1 (Bayer, published 2015):

B1: Example 280 (antibody, human IgG1, kappa, V domains shown)
VH: QVELVESGGGLVQPGGSLRLSCAASGFTFSSYGMSWVRQAPGKGLEWVSGISSLGSTTYYADSVKGRFTISRDNSKNTLYLQMNSLRAEDTAVYYCARTGSPGTFMHGDHWGQGTLVTVSS
VL: DIQMTQSPSSLSASVGDRVTITCRASQDINNYLSWYQQKPGKAPKLLIYGASNLQSGVPSRFSGSGSGTDFTLTISSLQPEDFAVYYCQQYYGRPTTFGQGTKVEIKR
modifications: linker-toxophore on cysteine S
B2: Example 281 (antibody, human IgG1, kappa, V domains shown)
VH: B1 VH
VL: B1 VL
modifications: linker-toxophore on cysteine S
B3: Example 322 (antibody, human IgG1, kappa, V domains shown)
VH: B1 VH
VL: B1 VL
modifications: linker-toxophore on lysine NH
B4: Example 320 (antibody, human IgG1, kappa, V domains shown)
VH: B1 VH
VL: B1 VL
modifications: linker-toxophore on cysteine S
B5: Example 325 (antibody, human IgG1, kappa, V domains shown)
VH: B1 VH
VL: B1 VL
modifications: linker-toxophore on cysteine S
B6: Example 326 (antibody, human IgG1, kappa, V domains shown)
VH: B1 VH
VL: B1 VL
modifications: linker-toxophore on lysine NH
B7: Example 315 (antibody, human IgG1, kappa, V domains shown)
VH: B1 VH
VL: B1 VL
modifications: linker-toxophore on cysteine S
B8: Example 314 (antibody, human IgG1, kappa, V domains shown)
VH: B1 VH
VL: B1 VL
modifications: linker-toxophore on lysine NH
B9: Example 327 (antibody, human IgG1, kappa, V domains shown)
VH: B1 VH
VL: B1 VL
modifications: linker-toxophore on cysteine S
B10: Example 321 (antibody, human IgG1, kappa, V domains shown)
VH: B1 VH
VL: B1 VL
modifications: linker-toxophore on cysteine S
B11: Example 323 (antibody, human IgG1, kappa, V domains shown)
VH: B1 VH
VL: B1 VL
modifications: linker-toxophore on lysine NH
B12: Example 313 (antibody, human IgG1, kappa, V domains shown)
VH: B1 VH
VL: B1 VL
modifications: linker-toxophore on cysteine S
B13: Example 324 (antibody, human IgG1, kappa, V domains shown)
VH: B1 VH
VL: B1 VL
modifications: linker-toxophore on cysteine S
B14: Example 141, conjugate of anti-mesothelin antibody MF-Ta (antibody, human IgG1, lambda, V domains shown)
VH: QVELVQSGAEVKKPGESLKISCKGSGYSFTSYWIGWVRQAPGKGLEWMGIIDPGDSRTRYSPSFQGQVTISADKSISTAYLQWSSLKASDTAMYYCARGQLYGGTYMDGWGQGTLVTVSS
VL: DIALTQPASVSGSPGQSITISCTGTSSDIGGYNSVSWYQQHPGKAPKLMIYGVNNRPSGVSNRFSGSKSGNTASLTISGLQAEDEADYYCSSYDIESATPVFGGGTKLTVLG
modifications: toxophore-linker on Cys sulfur, sites not given
B15: Example 367, conjugate of anti-mesothelin antibody MF-Ta (antibody, human IgG1, lambda, V domains shown)
VH: B14 VH
VL: B14 VL
modifications: toxophore-linker on Lys NH, sites not given
B16: Example 155, conjugate of anti-mesothelin antibody MF-Ta (antibody, human IgG1, lambda, V domains shown)
VH: B14 VH
VL: B14 VL
modifications: toxophore-linker, coupling residue not stated
B17: Example 143, conjugate of anti-mesothelin antibody MF-Ta (antibody, human IgG1, lambda, V domains shown)
VH: B14 VH
VL: B14 VL
modifications: toxophore-linker on Lys NH, sites not given
B18: Example 145, conjugate of anti-mesothelin antibody MF-Ta (antibody, human IgG1, lambda, V domains shown)
VH: B14 VH
VL: B14 VL
modifications: toxophore-linker on Lys NH, sites not given
B19: Example 144, conjugate of anti-mesothelin antibody MF-Ta (antibody, human IgG1, lambda, V domains shown)
VH: B14 VH
VL: B14 VL
modifications: toxophore-linker on Lys NH, sites not given
B20: Example 151, conjugate of anti-mesothelin antibody MF-Ta (antibody, human IgG1, lambda, V domains shown)
VH: B14 VH
VL: B14 VL
modifications: toxophore-linker on Cys sulfur, sites not given
B21: Example 368, conjugate of anti-mesothelin antibody MF-Ta (antibody, human IgG1, lambda, V domains shown)
VH: B14 VH
VL: B14 VL
modifications: toxophore-linker on Lys NH, sites not given
B22: Example 377, conjugate of anti-mesothelin antibody MF-Ta (antibody, human IgG1, lambda, V domains shown)
VH: B14 VH
VL: B14 VL
modifications: toxophore-linker on Cys sulfur, sites not given
B23: Example 158, conjugate of anti-mesothelin antibody MF-Ta (antibody, human IgG1, lambda, V domains shown)
VH: B14 VH
VL: B14 VL
modifications: toxophore-linker, coupling residue not stated
B24: Example 157, conjugate of anti-mesothelin antibody MF-Ta (antibody, human IgG1, lambda, V domains shown)
VH: B14 VH
VL: B14 VL
modifications: toxophore-linker, coupling residue not stated
B25: Example 156, conjugate of anti-mesothelin antibody MF-Ta (antibody, human IgG1, lambda, V domains shown)
VH: B14 VH
VL: B14 VL
modifications: toxophore-linker, coupling residue not stated
B26: Example 380 (Diastereomer 2), conjugate of anti-mesothelin antibody MF-Ta (antibody, human IgG1, lambda, V domains shown)
VH: B14 VH
VL: B14 VL
modifications: toxophore-linker on Lys NH, sites not given
B27: Example 379 (Diastereomer 1), conjugate of anti-mesothelin antibody MF-Ta (antibody, human IgG1, lambda, V domains shown)
VH: B14 VH
VL: B14 VL
modifications: toxophore-linker on Lys NH, sites not given
B28: Example 153, conjugate of anti-mesothelin antibody MF-Ta (antibody, human IgG1, lambda, V domains shown)
VH: B14 VH
VL: B14 VL
modifications: toxophore-linker on Cys sulfur, sites not given
B29: Example 146, conjugate of anti-mesothelin antibody MF-Ta (antibody, human IgG1, lambda, V domains shown)
VH: B14 VH
VL: B14 VL
modifications: toxophore-linker on Lys NH, sites not given
B30: Example 152, conjugate of anti-mesothelin antibody MF-Ta (antibody, human IgG1, lambda, V domains shown)
VH: B14 VH
VL: B14 VL
modifications: toxophore-linker on Lys NH, sites not given
B31: Example 154, conjugate of anti-mesothelin antibody MF-Ta (antibody, human IgG1, lambda, V domains shown)
VH: B14 VH
VL: B14 VL
modifications: toxophore-linker on Cys sulfur, sites not given
B32: Example 159, conjugate of anti-mesothelin antibody MF-Ta (antibody, human IgG1, lambda, V domains shown)
VH: B14 VH
VL: B14 VL
modifications: toxophore-linker, coupling residue not stated
B33: Example 378, conjugate of anti-mesothelin antibody MF-Ta (antibody, human IgG1, lambda, V domains shown)
VH: B14 VH
VL: B14 VL
modifications: toxophore-linker on Lys NH, sites not given
B34: Example 369, conjugate of anti-mesothelin antibody MF-Ta (antibody, human IgG1, lambda, V domains shown)
VH: B14 VH
VL: B14 VL
modifications: toxophore-linker on Lys NH, sites not given
B35: Example 147, conjugate of anti-mesothelin antibody MF-Ta (antibody, human IgG1, lambda, V domains shown)
VH: B14 VH
VL: B14 VL
modifications: toxophore-linker on Lys NH, sites not given
B36: Example 142, conjugate of anti-mesothelin antibody MF-Ta (antibody, human IgG1, lambda, V domains shown)
VH: B14 VH
VL: B14 VL
modifications: toxophore-linker on Cys sulfur, sites not given
B37: Example 366, conjugate of anti-mesothelin antibody MF-Ta (antibody, human IgG1, lambda, V domains shown)
VH: B14 VH
VL: B14 VL
modifications: toxophore-linker on Cys sulfur, sites not given
B38: Example 150, conjugate of anti-mesothelin antibody MF-Ta (antibody, human IgG1, lambda, V domains shown)
VH: B14 VH
VL: B14 VL
modifications: toxophore-linker on Lys NH, sites not given
B39: Example 149, conjugate of anti-mesothelin antibody MF-Ta (antibody, human IgG1, lambda, V domains shown)
VH: B14 VH
VL: B14 VL
modifications: toxophore-linker on Lys NH, sites not given
B40: Example 148, conjugate of anti-mesothelin antibody MF-Ta (antibody, human IgG1, lambda, V domains shown)
VH: B14 VH
VL: B14 VL
modifications: toxophore-linker on Lys NH, sites not given

Tests used:
Experiment in all cases: cell-based or functional assay
Carboanhydrase IX [1] = biological target: T1, Carboanhydrase IX (Homo sapiens, UniProt Q16790 38-459)
Carboanhydrase IX [2] = biological target: T1, Carboanhydrase IX; remark: listed apart in the source
[3] = biological target: Mesothelin (SwissProt reference Q13421-3) (Homo sapiens, UniProt Q13421 37-622)

| MIAPaCa 2/CA9+ IC50 (Carboanhydrase IX [1]) | EC50 (nM) HT29 (Carboanhydrase IX [2]) | IC50 (nM), HT29 meso+ cells, MTT proliferation assay [3] | Binder |
| --- | --- | --- | --- |
| 0.4 nM | 2.9 nM |  | B1 |
| 1.2 nM | 1.7 nM |  | B2 |
| 172 nM |  |  | B3 |
| 19 nM |  |  | B4 |
| 137 nM |  |  | B5 |
| 2 nM |  |  | B6 |
| 3.2 nM |  |  | B7 |
| 150 nM |  |  | B8 |
| 19 nM |  |  | B9 |
| 220 nM |  |  | B10 |
| 238 nM |  |  | B11 |
| 3.8 nM |  |  | B12 |
| 11 nM |  |  | B13 |
|  |  | 43 nM | B14 |
|  |  | 0.06 nM | B15 |
|  |  | 0.5 nM | B16 |
|  |  | 0.3 nM | B17 |
|  |  | 7.4 nM | B18 |
|  |  | 2.7 nM | B19 |
|  |  | > 1000 nM | B20 |

| MIAPaCa 2/CA9+ IC50 (Carboanhydrase IX [1]) | EC50 (nM) HT29 (Carboanhydrase IX [2]) | IC50 (nM), HT29 meso+ cells, MTT proliferation assay [3] | Binder |
| --- | --- | --- | --- |
|  |  | 3.1 nM | B21 |
|  |  | 1.6 nM | B22 |
|  |  | 0.18 nM | B23 |
|  |  | 0.09 nM | B24 |
|  |  | 4.6 nM | B25 |
|  |  | 15 nM | B26 |
|  |  | 7 nM | B27 |
|  |  | 30 nM | B28 |
|  |  | 13 nM | B29 |
|  |  | 4.1 nM | B30 |
|  |  | 2.2 nM | B31 |
|  |  | 177 nM | B32 |
|  |  | 0.04 nM | B33 |
|  |  | 0.02 nM | B34 |
|  |  | 5.6 nM | B35 |
|  |  | 0.27 nM | B36 |
|  |  | 1.3 nM | B37 |
|  |  | < 0.1 nM | B38 |
|  |  | 3.1 nM | B39 |
|  |  | 425 nM | B40 |
